The data set concerns the molecule itself. In words: ThT fluorescence kinetics + AFM + TEM + Raman spectroscopy (amyloid fibril formation); self-association into amyloid fibrils starting from condensates; 30 µM protein in 50 mM Tris pH 7.5, 200 mM NaCl, 2 mM β-mercaptoethanol, 20 µM ThT, 384-well plates; re-scan confocal images after ~70 h.

We go through two proteins from article PMC10533390, “The interface of condensates of the hnRNPA1 low-complexity domain promotes formation of amyloid fibrils” (Nature Chemistry, 2023).

B1: hnRNPA1-A low-complexity domain (domain or fragment, UniProt P09651 186-250, looked up)
chain: MASASSSQRGRSGSGNFGGGRGGGFGGNDNFGRGGNFSGRGGFGGSRGGGGYGGSGDGYNGFGNDGSNFGGGGSYNDFGNYNNQSSNFGPMKGGNFGGRSSGPYGGGGQYFAKPRNQGGYGGSSSSSSYGSGRRF
notes: 15.2 kDa; The two stretches joined are the natural splice variant; also called A-LCD; hnRNPA1–A-LCD; source: E. coli BL21-Gold (DE3), purified (Ni-NTA, SEC on Superdex 75 in 8 M urea)
For B1, the binding result is on record as “binds”.

B2: hnRNPA1-B low-complexity domain (domain or fragment, UniProt P09651 186-372, looked up)
chain: MASASSSQRGRSGSGNFGGGRGGGFGGNDNFGRGGNFSGRGGFGGSRGGGGYGGSGDGYNGFGNDGGYGGGGPGYSGGSRGYGSGGQGYGNQGSGYGGSGSYDSYNNGGGGGFGGGSGSNFGGGGSYNDFGNYNNQSSNFGPMKGGNFGGRSSGPYGGGGQYFAKPRNQGGYGGSSSSSSYGSGRRF
notes: C-terminal low-complexity domain of heterogeneous nuclear ribonucleoprotein A1, splicing variant hnRNPA1-B (52 amino acids more than hnRNPA1-A); 19.8 kDa; also called B-LCD; hnRNPA1–B-LCD; source: E. coli BL21-Gold (DE3), purified (Ni-NTA, SEC on Superdex 75 in 2 M urea)
As for B2, the binding result is “binds”.
